This note sets out measurements from patent US20030028904A1 (published 2003).

The target in this assay is T1, His-tagged Dock180 (UniProt Q14185 1-1865).
T1 construct: also called His-Dock180; CED-5/Dock180; not shown: His tag
The experiment in a line: co-immunoprecipitation, anti-FLAG IP and anti-Dock180 blot, COS-7 cells (FIG. 20B lane 9). The source says:
COS-7 cells were transfected with the indicated plasmids and the lysates were immunoprecipitated with anti-FLAG antibody and immunoblotted with anti-Dock180 (a mixture of N- and C-terminal antibodies). The same blot was stripped and reprobed with anti-FLAG to determine expression of the FLAG-tagged proteins. Immunoblotting of total lysates indicated the expression of Dock180 in the appropriate lanes. FIG. 20C is a photograph of a blot showing that ELMO1 and ELMO2 interact with Dock180. COS-7 cells were transfected as above with plasmids coding for FLAG-tagged ELMO1, ELMO2, the N-term or C-term versions of ELMO1 along with His-Dock180. After anti-FLAG immunoprecipitation, the coprecipitation of Dock180 was analyzed by immunoblotting. FIG. 20D is a photograph of a blot showing that CED-12 interacts with CED-5, but not Rac in a yeast two-hybrid assay. Interaction between Caenorhabditis elegans CED-12 and CED-5 as well as Rac wt and mutants were analyzed by yeast two-hybrid interaction as described in the Experimental procedures. Growth seen on selective plates is shown. FIG. 20E is a photograph of a blot showing that formation of a trimeric complex between ELMO1, CrkII and Dock180. […]
It was determined whether there might be a physical interaction between ELMO1 and Dock180, Rac or CrkII. […]

B1: FLAG-tagged human CED-6 (other, UniProt Q9UBP9 1-304, looked up)
chain: MNRAFSRKKDKTWMHTPEALSKHFIPYNAKFLGSTEVEQPKGTEVVRDAVRKLKFARHIKKSEGQKIPKVELQISIYGVKILEPKTKEVQHNCQLHRISFCADDKTDKRIFTFICKDSESNKHLCYVFDSEKCAEEITLTIGQAFDLAYRKFLESGGKDVETRKQIAGLQKRIQDLETENMELKNKVQDLENQLRITQVSAPPAGSMTPKSPSTDIFDMIPFSPISHQSSMPTRNGTQPPPVPSRSTEIKRDLFGAEPFDPFNCGAADFPPDIQSKLDEMQEGFKMGLTLEGTVFCLDPLDSRC
notes: not shown: FLAG tag
With B1, the binding result is “no binding”.
